4 molecules from patent US20200123239A1 (PROTHENA BIOSCIENCES, published 2020) can be followed below.

By Kd is commonly meant the equilibrium constant for the complex coming apart. In general, koff refers to the rate constant with which the complex falls apart. A word on the kon: it is a measure of how fast the partners come together.

Assay [1] has as its target T1, Δ23-32 deletion mutant of tau (rTau) (human, UniProt P10636 1-758).
T1 construct: Deletion mutagenesis of rTau; Tested as clarified bacterial lysate on Western blots; also called A23-32
The experiment in a line: Western blot of bacterial lysates, 16B5 at 0.2 µg/mL. (A western blot detects proteins with antibodies after separation by electrophoresis.)
Description: (§1) To control for sample loading, Tau46, an antibody with specificity for the C-terminal region of tau (C-terminal epitope), was used to stain duplicate blots. Both antibodies were used at a concentration of 0.2 μg/mL. Images were captured using a Licor Odyssey fluorescent scanner. The following deletion mutants of tau were made and analyzed in this manner: Δ5-24, Δ23-32, Δ25-44, Δ30-39, and Δ37-46.

Assay [2] concerns the target T2, Δ30-39 deletion mutant of tau (rTau) (human, UniProt P10636 1-758).
T2 construct: Deletion mutagenesis of rTau; Tested as clarified bacterial lysate on Western blots; also called A30-39
The experiment in a line: Western blot of bacterial lysates.
Description: as §1

Assay [3] addresses T3, Δ25-44 deletion mutant of tau (rTau) (human, UniProt P10636 1-758).
T3 construct: Deletion mutagenesis of rTau; Tested as clarified bacterial lysate on Western blots; also called A25-44
Description: Western blot of bacterial lysates.
Description: as §1

Assay [4] addresses T4, tau peptide fragment, residues 25-44 of SEQ ID NO: 1 (human).
T4 construct: Proteolytic fragment (LysC and trypsin digests) of rTau, precipitated with 16B5 and identified by MALDI-TOF/TOF
T4 peptide: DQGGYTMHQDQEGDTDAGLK
Description: precipitation of digest fragments with 16B5, HPLC, MALDI-TOF/TOF (LysC and trypsin digests).
Description: (§2) The human tau sequence with 4 microtubule binding repeats and no N-terminal inserts, and containing a P301L mutation (rTau), was expressed in E. coli and purified. […] Enzymatic digests of 200 ug of tau were carried out with one of four different proteases: trypsin (which cleaves at the carboxyl end of arginine and lysine), chymotrypsin (which primarily cleaves at the carboxyl end of tyrosine, tryptophan, phenylalanine and leucine), LysC (which cleaves at the carboxyl end of lysine), or GluC (which cleaves after glutamate residues and rarely after aspartate residues). All proteases were obtained from Thermo Scientific, and digests were performed for 16 h at 37° C. […] Precipitates were thoroughly washed in PBS containing 300 mM NaCl and 0.5% NP-40, then eluted with 1M NaCl in 100 mM glycine, pH 2.8. Eluates were dried under vacuum and resuspended in 0.1% trifluoroacetic acid (TFA). […] Peak fractions were collected, dried and resuspended in distilled water. Peptide masses and identities were determined by MALDI-TOF/TOF.

In assay [5] the target is T5, tau peptide fragment, residues 24-44 of SEQ ID NO: 1 (human).
T5 construct: Proteolytic fragment (trypsin digest) of rTau, precipitated with 16B5 and identified by MALDI-TOF/TOF
T5 peptide: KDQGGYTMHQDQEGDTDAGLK
Description: precipitation of digest fragments with 16B5, HPLC, MALDI-TOF/TOF (trypsin digest).
Description: as §2

For assay [6], the target named is T6, human tau with 4 microtubule binding repeats and no N-terminal inserts, containing a P301L mutation (rTau) (human, UniProt P10636 2-758).
T6 construct: Expressed in E. coli and purified; also called full-length Tau; wild-type Tau (WT) on the blots
T6 sequence (P10636 other isoform, or with tags, fused parts or gaps P301L P301L limits assumed): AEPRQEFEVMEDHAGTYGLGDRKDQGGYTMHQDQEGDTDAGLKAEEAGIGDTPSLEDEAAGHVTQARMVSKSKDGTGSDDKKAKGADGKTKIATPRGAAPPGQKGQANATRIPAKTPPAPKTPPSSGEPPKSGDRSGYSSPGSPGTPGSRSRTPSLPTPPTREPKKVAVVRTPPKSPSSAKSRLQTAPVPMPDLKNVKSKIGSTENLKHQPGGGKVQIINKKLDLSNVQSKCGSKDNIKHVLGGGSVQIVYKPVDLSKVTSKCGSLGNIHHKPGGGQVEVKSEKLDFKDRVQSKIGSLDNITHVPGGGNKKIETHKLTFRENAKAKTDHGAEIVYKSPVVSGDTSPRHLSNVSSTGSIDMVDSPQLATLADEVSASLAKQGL
Description: Western blot of bacterial lysate, stained with 16B5 at 0.2 ug/mL.
Description: as §1

Assay [7] deals with T7, Δ5-24 deletion mutant of tau (rTau) (human, UniProt P10636-6 1-383).
T7 construct: Deletion mutagenesis of rTau; Tested as clarified bacterial lysate on Western blots; also called A5-24
T7 sequence (P10636 other isoform, or with tags, fused parts or gaps mutant): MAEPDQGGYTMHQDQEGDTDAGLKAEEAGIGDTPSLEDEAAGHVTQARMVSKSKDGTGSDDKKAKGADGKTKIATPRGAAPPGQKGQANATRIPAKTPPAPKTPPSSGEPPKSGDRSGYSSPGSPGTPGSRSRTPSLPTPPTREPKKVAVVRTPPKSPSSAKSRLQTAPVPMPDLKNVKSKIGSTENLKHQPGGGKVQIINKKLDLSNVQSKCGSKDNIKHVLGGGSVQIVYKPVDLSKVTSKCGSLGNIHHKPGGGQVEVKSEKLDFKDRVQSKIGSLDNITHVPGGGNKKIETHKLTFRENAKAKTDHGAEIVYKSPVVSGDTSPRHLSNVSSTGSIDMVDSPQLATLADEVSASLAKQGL
The description is as above.
Description: as §1

Assay [8] has as its target recombinant purified hTau-P301L (human) (UniProt P10636). Description: SPR (Biacore T200), antibody captured on anti-human or anti-mouse antibody, hTau-P301L as analyte. A general note: Surface plasmon resonance follows binding to a sensor surface in real time, without labels.

recombinant purified hTau-P301L (human), sequence (P10636 other isoform, or with tags, fused parts or gaps P301L P301L): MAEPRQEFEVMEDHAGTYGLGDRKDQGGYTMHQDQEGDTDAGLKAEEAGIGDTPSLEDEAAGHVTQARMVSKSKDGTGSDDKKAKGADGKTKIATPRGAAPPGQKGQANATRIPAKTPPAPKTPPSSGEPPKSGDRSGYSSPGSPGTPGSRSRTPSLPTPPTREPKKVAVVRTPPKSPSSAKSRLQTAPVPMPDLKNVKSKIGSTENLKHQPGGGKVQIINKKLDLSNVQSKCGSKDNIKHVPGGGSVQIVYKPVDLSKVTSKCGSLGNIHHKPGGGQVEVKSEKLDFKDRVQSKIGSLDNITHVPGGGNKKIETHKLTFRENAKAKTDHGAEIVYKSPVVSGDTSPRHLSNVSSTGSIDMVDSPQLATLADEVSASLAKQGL
T2 sequence (P10636 other isoform, or with tags, fused parts or gaps mutant): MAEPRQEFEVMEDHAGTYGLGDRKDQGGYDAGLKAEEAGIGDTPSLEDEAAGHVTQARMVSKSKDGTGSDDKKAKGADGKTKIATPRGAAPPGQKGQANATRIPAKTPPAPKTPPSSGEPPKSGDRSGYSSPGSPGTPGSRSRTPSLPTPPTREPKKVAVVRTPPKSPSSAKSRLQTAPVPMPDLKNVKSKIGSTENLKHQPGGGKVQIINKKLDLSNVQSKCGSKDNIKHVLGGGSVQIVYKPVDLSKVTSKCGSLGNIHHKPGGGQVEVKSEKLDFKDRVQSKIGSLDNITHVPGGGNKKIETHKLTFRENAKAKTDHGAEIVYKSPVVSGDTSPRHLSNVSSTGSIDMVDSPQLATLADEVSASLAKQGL
T3 sequence (P10636 other isoform, or with tags, fused parts or gaps mutant): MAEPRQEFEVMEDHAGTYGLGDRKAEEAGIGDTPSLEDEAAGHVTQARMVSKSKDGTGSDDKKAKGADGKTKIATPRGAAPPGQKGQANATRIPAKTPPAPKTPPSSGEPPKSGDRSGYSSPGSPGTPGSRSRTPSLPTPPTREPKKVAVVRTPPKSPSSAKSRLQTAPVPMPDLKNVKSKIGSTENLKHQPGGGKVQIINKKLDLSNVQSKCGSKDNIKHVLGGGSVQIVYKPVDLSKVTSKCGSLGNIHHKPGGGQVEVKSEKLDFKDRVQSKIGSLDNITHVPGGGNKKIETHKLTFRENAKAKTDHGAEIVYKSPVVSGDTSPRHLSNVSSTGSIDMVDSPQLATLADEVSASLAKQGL
T1 sequence (P10636 other isoform, or with tags, fused parts or gaps mutant): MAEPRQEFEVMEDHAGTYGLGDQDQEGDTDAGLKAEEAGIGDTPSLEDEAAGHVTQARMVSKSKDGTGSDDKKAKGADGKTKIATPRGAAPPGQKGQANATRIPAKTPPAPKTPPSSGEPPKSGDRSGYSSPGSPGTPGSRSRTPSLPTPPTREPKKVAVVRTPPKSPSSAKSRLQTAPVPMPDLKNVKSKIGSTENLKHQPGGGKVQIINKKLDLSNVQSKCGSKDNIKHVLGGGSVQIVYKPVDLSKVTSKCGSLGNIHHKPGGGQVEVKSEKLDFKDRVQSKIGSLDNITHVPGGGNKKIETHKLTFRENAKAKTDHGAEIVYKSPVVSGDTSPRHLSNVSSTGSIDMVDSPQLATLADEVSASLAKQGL

B1: murine monoclonal anti-tau antibody 16B5 (antibody, V domains shown)
VH: QIQLVQSGPELKKPGETVKISCKASGYPFTYHGMDWVKQAPWGGLEWMGWINTYSGVPTYADDFKGRFAFSLETSVGTAYLQINNLKNEDTATYFCARRRDFTMDFWGQGTSVTVSS
VL: NIVLSQSPSSLAVSPGEKVTMSCKSSQSLLNSRTRKNYLAWFQQKPGQSPKLLIYWASTRESGVPDRFTGSGSGTDFTLTISSVQAEDLAVYYCKQSYTLRTFGGGTNLEIKR
notes: Mouse monoclonal antibody; the isotype control used alongside it is IgG1; also called 16B5 monoclonal antibody; pan antibody 16B5
Take B1: the binding result in assay [1] is “binds”; in assay [2], “no binding (tested: 0.2 µg/mL)”; in assay [3], “no binding (tested: 0.2 µg/mL)”; in assay [4], “binds”; in assay [5], “binds”; in assay [6] it was “binds”. The binding result in assay [7] is on record as “binds”.

B2: humanized 16B5 antibody, version H1L1 (antibody, V domains shown)
VH: QVQLVQSGSELKKPGASVKVSCKASGYTFTYHGMDWVRQAPGQGLEWMGWINTYSGVPTYADDFKGRFVFSLDTSVSTAYLQISSLKAEDTAVYFCARRRDFTMDFWGQGTTVTVSS
VL: NIVLTQSPDSLAVSLGERATINCKSSQSLLNSRTRKNYLAWFQQKPGQPPKLLIYWASTRESGVPDRFSGSGSGTDFTLTISSLQAEDVAVYYCKQSYTLRTFGGGTKVEIKR
Regarding B2, in assay [8], the Kd was 0.617 nM, the koff was found to be 0.00215 s⁻¹ and the kon worked out at 3.5e+06 M⁻¹ s⁻¹.

B3: humanized 16B5 antibody, version H1L3 (antibody, V domains shown)
VH: QVQLVQSGSELKKPGASVKVSCKASGYTFTYHGMDWVRQAPGQGLEWMGWINTYSGVPTYADDFKGRFVFSLDTSVSTAYLQISSLKAEDTAVYFCARRRDFTMDFWGQGTTVTVSS
VL: DIVLTQSPDSLAVSLGERATINCKSSQSLLNSRTRKNYLAWFQQKPGQSPKLLIYWASTRESGVPDRFSGSGSGTDFTLTISSLQAEDVAVYYCKQSYTLRTFGGGTKVEIKR
B3: in assay [8], the Kd amounted to 0.32 nM, the koff stood at 0.00398 s⁻¹ and the kon worked out at 1.25e+07 M⁻¹ s⁻¹.

B4: humanized 16B5 antibody, version H1L2 (antibody, V domains shown)
VH: QVQLVQSGSELKKPGASVKVSCKASGYTFTYHGMDWVRQAPGQGLEWMGWINTYSGVPTYADDFKGRFVFSLDTSVSTAYLQISSLKAEDTAVYFCARRRDFTMDFWGQGTTVTVSS
VL: NIVLTQSPDSLAVSLGERATINCKSSQSLLNSRTRKNYLAWFQQKPGQSPKLLIYWASTRESGVPDRFSGSGSGTDFTLTISSLQAEDVAVYYCKQSYTLRTFGGGTKVEIKR
B4: in assay [8], the Kd amounted to 0.286 nM, the koff was determined as 0.00342 s⁻¹ and the kon is 1.2e+07 M⁻¹ s⁻¹.
